This note sets out measurements from PMC5971111 (Nature structural & molecular biology, 2018).

What all share (experiment): […]
Test [1] concerns the target T1, Sec8 (S. cerevisiae, UniProt P32855 1-1065).
T1 sequence: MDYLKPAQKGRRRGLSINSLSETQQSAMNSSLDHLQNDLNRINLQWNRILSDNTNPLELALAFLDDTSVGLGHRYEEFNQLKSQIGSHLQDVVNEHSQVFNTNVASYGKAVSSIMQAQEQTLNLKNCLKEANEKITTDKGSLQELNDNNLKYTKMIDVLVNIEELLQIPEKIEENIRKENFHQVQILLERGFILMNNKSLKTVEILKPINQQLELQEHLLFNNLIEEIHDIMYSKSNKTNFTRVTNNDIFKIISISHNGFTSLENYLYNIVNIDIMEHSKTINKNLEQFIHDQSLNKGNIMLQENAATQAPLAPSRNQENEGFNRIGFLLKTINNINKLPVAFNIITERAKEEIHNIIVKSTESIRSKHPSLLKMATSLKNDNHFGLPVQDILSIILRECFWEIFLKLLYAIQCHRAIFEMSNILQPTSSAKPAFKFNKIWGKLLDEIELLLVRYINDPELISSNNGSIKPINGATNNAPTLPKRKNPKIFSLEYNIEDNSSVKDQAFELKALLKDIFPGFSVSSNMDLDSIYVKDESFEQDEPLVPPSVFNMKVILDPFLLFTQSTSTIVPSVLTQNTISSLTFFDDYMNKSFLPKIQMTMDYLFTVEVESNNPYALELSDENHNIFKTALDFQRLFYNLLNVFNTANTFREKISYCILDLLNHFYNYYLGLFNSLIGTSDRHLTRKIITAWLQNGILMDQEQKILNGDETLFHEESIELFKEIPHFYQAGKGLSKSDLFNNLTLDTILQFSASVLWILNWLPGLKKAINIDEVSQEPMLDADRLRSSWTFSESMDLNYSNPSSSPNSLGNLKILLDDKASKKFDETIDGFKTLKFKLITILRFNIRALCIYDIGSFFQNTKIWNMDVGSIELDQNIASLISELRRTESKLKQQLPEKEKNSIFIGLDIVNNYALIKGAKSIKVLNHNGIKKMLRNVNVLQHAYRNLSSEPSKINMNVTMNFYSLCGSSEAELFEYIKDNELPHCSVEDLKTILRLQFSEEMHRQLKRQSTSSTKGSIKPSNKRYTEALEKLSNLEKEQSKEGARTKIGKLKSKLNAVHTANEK

Test [2] concerns the target T2, Sec15 (S. cerevisiae, UniProt P22224 1-910).
T2 sequence: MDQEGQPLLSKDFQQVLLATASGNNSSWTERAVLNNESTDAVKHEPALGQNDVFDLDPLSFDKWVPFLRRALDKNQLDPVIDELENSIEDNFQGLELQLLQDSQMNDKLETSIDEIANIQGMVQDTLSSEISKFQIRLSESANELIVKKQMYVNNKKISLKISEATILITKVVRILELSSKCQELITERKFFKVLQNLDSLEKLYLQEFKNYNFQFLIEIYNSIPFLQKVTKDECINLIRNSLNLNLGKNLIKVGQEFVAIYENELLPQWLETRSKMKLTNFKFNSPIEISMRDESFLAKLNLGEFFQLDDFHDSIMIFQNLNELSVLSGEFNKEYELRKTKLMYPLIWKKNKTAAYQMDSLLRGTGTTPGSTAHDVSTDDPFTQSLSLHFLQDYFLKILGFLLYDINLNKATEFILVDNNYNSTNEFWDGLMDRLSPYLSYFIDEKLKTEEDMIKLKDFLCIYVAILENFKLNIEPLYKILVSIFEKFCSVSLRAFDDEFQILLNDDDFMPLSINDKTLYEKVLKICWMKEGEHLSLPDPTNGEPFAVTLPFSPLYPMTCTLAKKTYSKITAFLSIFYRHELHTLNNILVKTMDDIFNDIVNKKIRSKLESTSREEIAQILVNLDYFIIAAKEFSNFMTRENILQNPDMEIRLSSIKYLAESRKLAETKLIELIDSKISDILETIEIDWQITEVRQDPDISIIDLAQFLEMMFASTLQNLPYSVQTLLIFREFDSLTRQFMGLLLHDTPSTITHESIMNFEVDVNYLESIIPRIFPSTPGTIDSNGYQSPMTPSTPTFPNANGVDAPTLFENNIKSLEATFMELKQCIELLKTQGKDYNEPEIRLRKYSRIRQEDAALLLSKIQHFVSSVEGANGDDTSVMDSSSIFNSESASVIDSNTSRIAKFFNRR

Test [3] addresses T3, Sec3 (S. cerevisiae, UniProt P33332 1-1336).
T3 sequence: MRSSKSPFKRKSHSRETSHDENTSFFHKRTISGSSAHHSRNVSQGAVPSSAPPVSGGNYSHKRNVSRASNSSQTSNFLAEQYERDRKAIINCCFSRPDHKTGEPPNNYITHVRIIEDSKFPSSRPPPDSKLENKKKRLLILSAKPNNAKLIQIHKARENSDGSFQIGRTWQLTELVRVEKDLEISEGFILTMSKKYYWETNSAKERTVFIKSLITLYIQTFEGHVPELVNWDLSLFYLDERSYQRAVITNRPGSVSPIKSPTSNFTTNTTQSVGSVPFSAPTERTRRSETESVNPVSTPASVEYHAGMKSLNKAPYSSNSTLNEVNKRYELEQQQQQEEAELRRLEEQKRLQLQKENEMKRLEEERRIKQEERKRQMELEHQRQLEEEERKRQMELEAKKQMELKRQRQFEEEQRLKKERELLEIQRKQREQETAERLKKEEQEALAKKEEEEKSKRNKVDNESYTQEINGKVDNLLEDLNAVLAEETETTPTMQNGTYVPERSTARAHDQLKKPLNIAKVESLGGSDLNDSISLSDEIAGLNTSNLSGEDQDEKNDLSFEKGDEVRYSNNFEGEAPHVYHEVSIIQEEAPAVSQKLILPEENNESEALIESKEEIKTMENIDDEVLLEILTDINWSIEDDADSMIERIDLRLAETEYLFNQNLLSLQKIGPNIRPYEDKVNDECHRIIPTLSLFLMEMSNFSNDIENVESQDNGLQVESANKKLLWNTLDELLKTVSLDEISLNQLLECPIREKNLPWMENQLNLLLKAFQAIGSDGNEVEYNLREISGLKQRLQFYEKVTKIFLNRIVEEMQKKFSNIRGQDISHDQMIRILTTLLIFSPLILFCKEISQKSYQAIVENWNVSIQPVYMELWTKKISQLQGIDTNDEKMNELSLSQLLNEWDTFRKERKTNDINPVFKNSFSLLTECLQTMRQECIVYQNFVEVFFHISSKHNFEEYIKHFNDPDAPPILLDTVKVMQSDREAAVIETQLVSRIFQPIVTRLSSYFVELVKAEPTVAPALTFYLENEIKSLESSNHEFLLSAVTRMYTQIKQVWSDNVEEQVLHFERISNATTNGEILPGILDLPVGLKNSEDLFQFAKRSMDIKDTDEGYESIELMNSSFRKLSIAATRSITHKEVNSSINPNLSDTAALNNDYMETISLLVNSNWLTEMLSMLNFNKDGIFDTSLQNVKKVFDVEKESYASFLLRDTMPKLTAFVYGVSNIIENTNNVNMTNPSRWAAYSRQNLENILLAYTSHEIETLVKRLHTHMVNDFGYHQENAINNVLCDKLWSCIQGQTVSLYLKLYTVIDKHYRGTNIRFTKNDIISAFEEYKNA

Test [4] deals with T4, Sec5 (S. cerevisiae, UniProt P89102 1-971).
T4 sequence: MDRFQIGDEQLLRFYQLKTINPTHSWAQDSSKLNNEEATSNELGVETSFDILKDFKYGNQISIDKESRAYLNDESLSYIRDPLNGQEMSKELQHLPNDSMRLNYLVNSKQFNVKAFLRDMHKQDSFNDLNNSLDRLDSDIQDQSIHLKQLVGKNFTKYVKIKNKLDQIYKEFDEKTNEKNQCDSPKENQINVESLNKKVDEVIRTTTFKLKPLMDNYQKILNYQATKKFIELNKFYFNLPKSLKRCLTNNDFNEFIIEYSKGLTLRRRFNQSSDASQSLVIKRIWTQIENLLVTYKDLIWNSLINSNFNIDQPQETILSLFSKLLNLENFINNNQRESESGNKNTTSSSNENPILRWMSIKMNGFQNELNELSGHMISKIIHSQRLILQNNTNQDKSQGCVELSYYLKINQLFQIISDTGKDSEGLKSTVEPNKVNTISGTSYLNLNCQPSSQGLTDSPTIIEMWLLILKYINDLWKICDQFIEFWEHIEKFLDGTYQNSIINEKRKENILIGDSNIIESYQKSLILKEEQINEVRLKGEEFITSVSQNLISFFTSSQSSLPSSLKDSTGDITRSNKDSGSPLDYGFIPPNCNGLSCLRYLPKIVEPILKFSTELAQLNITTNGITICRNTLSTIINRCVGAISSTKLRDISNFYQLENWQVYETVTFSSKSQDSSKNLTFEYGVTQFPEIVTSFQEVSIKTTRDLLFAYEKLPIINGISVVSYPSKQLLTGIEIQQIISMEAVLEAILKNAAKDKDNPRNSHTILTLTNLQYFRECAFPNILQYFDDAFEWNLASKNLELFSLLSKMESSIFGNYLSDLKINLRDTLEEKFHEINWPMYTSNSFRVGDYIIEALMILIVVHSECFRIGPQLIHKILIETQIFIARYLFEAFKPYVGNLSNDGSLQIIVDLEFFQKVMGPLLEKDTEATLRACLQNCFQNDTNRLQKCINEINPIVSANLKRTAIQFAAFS

B1: Sec10 (natural protein)
chain: MNSLYELDPKWKKLLKTDNFLGGLTVNEFVQELSKDHRNDVLIDANTKNLPTNEKDQDAIREAIWKQLDPKPYIRTFESTLKELKNLNEETLNKRQYFSEQVATQEVIHSENVIKLSKDLHTTLLTFDKLDDRLTNVTQVVSPLGDKLETAIKKKQNYIQSVELIRRYNDFYSMGKSDIVEQLRLSKNWKLNLKSVKLMKNLLILSSKLETSSIPKTINTKLVIEKYSEMMENELLENFNSAYRENNFTKLNEIAIILNNFNGGVNVIQSFINQHDYFIDTKQIDLENEFENVFIKNVKFKEQLIDFENHSVIIETSMQNLINDVETVIKNESKIVKRVFEEKATHVIQLFIQRVFAQKIEPRFEVLLRNSLSISNLAYVRILHGLFTLFGKFTKSLIDYFQLLEIDDSNQILSTTLEQCFADLFSHYLYDRSKYFGIEKRSLEAILVDMTSKFTVNYDKEINKRVLLDKYKEKLSTNVDAFMHSPRGNTHSRQDSTSRSKLSQFNSFLKTHLDKDHLSLNRTNTLSDSFNNSSSSTQYDVANNSSSLVNSSFTASDIDNSPNSPANYSLNDVDSMLKCVVESTARVMELIPNKAHLYILEILKIMFLGIVDSYMEIALEVAYWKICKVDINKTAGVVNLNFLKFISMSTEILDLLSISIKSIFLPLLNNSPEIKAQIIEMTNSQIQKMEILINIILQETITVISTKFSAILCKQKKKDFVPKSQELLDQDTLPAIEIVNILNLIFEQSSKFLKGKNLQTFLTLIGEELYGLLLSHYSHFQVNSIGGVVVTKDIIGYQTAIEDWGVASLIDKFATLRELANLFTVQPELLESLTKEGHLADIGRDIIQSYISNREDFNHDNFINSVKLNFR
Turning to B1, the binding result in test [1], in test [2] and in test [3] was “binds” in each case.

B2: Sec6 (natural protein)
chain: MSSDPLQQVCDLIKGDLSLERVRDIKEQLLKEKSVVEYQLNKESDKYYGEVEESLKLLNLSKNSVTSIKQQINEVNKLGNDNRFAINRYDILFRATKLYETVNTTSSIYDRIYNFVALMEHIERLLVAELAEDALETGCPHLLEIHFLLTSARDFQEQVVVMAKEATEDAQRTVMKLFSRLSGIISKFDKLLDGLTYDIVEMARAEQISLAIRLFKIYDLEEREDLRIEAIRNIIKKKEIEIEKSSIKKLPNSKNTARLQDETPKVIEYPTNKGLYQEIMSGTISTRTAPRGYKHFLINGINNSISEMFGEMREKYVGDQKFDVLDNMDWIFNELIIVKEHIANCCPPHWNIFEVYFDQYYKELHSLITDLVESEPETIIILDILAFDKTFQDTLKQDFGFTKSEVKSVIGDKEKETLFKDYLNLIVVKMTEWIGNLEKAEFDVFLERSTPPHSDSDGLLFLDGTKTCFQMFTQQVEVAAGTNQAKILVGVVERFSDLLTKRQKNWISKISEEIKKQINYNHKYDIDPESITPEDECPGGLVEYLIAVSNDQMKAADYAVAISSKYGKLVSKVYEKQITNHLEGTLDGFAEVAQCSSLGLITLMFDDLRKPYQEIFSKTWYMGSQAQQIADTLDEYLLDIKPQMNSVLFVNFIDNVIGETIIKFLTALSFEHSFKNKNNKFLEAMKRDFEIFYQLFVKVLDGNESKDTLITQNFTVMEFFMDLSCEPIDSILDIWQKYLEVYWDSRIDLLVGILKCRKDVSSSERKKIVQQATEMLHEYRRNMEANGVDREPTLMRRFVLEFEKQ
B2: the binding result in test [4] and in test [3] was “binds” throughout.
